Experiments:
[1] = target: T1, GST-TEK (Arabidopsis thaliana) (UniProt Q9SJG4); assay: EMSA; conditions: EMSA according to manufacturer's instructions (Thermo Scientific); buffer, salt, pH and temperature not stated
T1 sequence: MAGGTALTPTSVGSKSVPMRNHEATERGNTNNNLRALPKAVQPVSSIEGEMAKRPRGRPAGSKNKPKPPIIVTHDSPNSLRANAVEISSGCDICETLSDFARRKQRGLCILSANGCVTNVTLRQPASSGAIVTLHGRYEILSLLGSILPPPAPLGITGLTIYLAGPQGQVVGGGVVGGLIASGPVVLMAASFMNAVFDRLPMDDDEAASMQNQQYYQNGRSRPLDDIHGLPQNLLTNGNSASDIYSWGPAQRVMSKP

[2] = target: T1, GST-TEK (Arabidopsis thaliana); assay: competition; conditions: EMSA according to manufacturer's instructions (Thermo Scientific); buffer, salt, pH and temperature not stated

Sequence	binding [1]	binding [2]
GCCCATATATAGTATCTTCCGCTGTTGTATATCTTGAGCAGCTTGAGGAAGCCTTTGCAAAAAAATAGAGTGAATTTTGAGTACAGTATGAATATCATTCAACAACATTTTCCATCCAAGCGACTTAGAAAATAAAATTTTGTCAGCTACCTTAAACTGTGTTTACGTCCTAAAAATTTGCACCAA (double strand) [CalS5 P11 fragment]	binds	–
GCCCATATATAGTATCTTCCGCTGTTGTATATCTTGAGCAGCTTGAGGAAGCCTTTGCAAAAAAATAGAGTGAATTTTGAGTACAGTATGAATATCATTCAACAACATTTTCCATCCAAGCGACTTAGAAAATAAAATTTTGTCAGCTACCTTAAACTGTGTTTACGTCCTAAAAATTTGCACCAA (double strand) [CalS5 P11 unlabeled competitor]	–	binds
